According to article PMC6144812:
Changes are numbered by the printed parent chain.

T1: nPfh1 (nuclear isoform, wild-type) (Schizosaccharomyces pombe, UniProt Q9UUA2-2 1-785)
T1 sequence: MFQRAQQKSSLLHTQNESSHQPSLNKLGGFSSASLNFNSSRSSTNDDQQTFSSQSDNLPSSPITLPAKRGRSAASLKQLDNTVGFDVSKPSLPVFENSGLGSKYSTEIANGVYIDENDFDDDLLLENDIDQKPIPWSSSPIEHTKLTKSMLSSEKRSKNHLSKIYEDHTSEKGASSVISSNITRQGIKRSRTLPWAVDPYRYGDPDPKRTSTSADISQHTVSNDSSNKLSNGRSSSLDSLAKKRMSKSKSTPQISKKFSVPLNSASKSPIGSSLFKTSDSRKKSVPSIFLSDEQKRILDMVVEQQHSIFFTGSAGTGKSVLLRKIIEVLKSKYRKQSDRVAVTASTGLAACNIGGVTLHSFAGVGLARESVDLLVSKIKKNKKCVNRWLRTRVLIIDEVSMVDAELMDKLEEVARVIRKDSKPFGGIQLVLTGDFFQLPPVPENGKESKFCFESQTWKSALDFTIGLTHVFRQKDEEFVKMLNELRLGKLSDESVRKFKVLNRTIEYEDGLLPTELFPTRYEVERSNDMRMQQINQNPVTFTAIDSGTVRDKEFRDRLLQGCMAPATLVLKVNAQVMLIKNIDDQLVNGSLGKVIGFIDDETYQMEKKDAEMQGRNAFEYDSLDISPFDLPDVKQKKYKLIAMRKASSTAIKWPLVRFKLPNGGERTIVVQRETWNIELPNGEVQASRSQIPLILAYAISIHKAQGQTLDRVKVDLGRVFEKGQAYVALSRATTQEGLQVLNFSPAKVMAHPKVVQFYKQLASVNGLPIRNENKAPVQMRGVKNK

T2: nPfh1-L430A (Schizosaccharomyces pombe, UniProt Q9UUA2-2 1-785, L410A)
T2 sequence: T1 sequence with L410A

T3: nPfh1-Δ21 (Schizosaccharomyces pombe, UniProt Q9UUA2-2 1-785, del408-428)
T3 sequence: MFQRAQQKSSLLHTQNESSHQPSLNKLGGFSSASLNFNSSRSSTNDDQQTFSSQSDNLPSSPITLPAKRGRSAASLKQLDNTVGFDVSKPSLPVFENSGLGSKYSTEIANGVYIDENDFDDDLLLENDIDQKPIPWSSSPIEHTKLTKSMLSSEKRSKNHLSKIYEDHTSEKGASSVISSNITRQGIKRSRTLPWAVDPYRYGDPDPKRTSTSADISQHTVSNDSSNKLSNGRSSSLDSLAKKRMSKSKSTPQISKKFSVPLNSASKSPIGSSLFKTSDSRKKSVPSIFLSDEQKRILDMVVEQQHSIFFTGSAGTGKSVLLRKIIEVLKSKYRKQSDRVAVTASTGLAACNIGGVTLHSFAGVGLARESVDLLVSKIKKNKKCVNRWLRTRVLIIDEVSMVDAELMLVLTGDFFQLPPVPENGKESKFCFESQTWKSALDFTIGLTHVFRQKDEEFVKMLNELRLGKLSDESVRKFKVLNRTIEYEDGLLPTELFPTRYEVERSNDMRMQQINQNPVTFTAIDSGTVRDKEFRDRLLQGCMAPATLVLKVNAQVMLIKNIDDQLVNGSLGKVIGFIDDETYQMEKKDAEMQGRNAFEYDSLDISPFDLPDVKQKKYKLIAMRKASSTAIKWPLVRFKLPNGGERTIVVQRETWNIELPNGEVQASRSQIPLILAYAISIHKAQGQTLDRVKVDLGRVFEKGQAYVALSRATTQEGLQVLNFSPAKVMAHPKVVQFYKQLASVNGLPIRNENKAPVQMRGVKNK

T4: nPfh1-L430P (Schizosaccharomyces pombe, UniProt Q9UUA2-2 1-785, L410P)
T4 sequence: T1 sequence with L410P

B1: 3'-5' DNA/DNA partial duplex (dsDNA)
DNA 1: TCGATGGTACGGACGTGCTTAAAGAAAAAAAAAA
DNA 2: TCGATGGTACGGACGTGCTTAA
B2: Y-fork (dsDNA)
DNA 1: AAAAAAAAAAGATTAAGCACGTCCGTACCATCGA
DNA 2: B1 DNA 1
B3: Duplex DNA/DNA (dsDNA)
DNA 1: TTAAGCACGTCCGTACCATCGA
DNA 2: TCGATGGTACGGACGTGCTTAA

How the values were obtained:
Test in all cases: EMSA
[1] = target: T1, nPfh1 (nuclear isoform, wild-type)
[2] = target: T2, nPfh1-L430A
[3] = target: T3, nPfh1-Δ21
[4] = target: T4, nPfh1-L430P

Row | Binder | binding result [1] | binding signal [2] | binding signal [3] | binding signal [4]
1 | B1 | no binding | – | – | –
2 | B2 | – | < 5 % bound | < 5 % bound | < 5 % bound
3 | B3 | no binding | – | – | –
